Fold binding over non-specific control BSA, IC50 of inhibition of chaperon activity of Hsp16.3 (ADH heat aggregation assay, A360) and aggregation of ADH restored in the presence of Hsp16.3 and 100 µM peptide (A360 data for two substances are collected here from US20070037211A1 (COUNCIL OF SCIENTIFIC AND INDUSTRIAL RESEARCH CSIR, published 2007).

Assay [1] addresses Hsp16.3, 16 kDa alpha-crystallin like heat shock protein of Mycobacterium tuberculosis, recombinant 6xHis-tagged (Mycobacterium tuberculosis) (UniProt P9WMK1). Put plainly: reverse phage ELISA on coated Hsp16.3, anti-M13-HRP, A405. In general terms: ELISA stands for enzyme-linked immunosorbent assay.
Assay [2] has the same target. The assay is described as follows: cell-based or functional assay.

Hsp16.3, 16 kDa alpha-crystallin like heat shock protein of Mycobacterium tuberculosis, recombinant 6xHis-tagged (Mycobacterium tuberculosis), sequence (P9WMK1 1-144, tags left off): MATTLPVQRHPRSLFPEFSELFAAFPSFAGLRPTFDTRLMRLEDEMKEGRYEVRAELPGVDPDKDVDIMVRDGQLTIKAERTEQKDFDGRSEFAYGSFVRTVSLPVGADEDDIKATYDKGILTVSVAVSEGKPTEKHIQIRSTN

Turning to “M13 phage clone displaying peptide Seq ID 9 (Lys-Met-His-Ala-Thr-Asn-His), from Ph.D.-7 library”, in assay [1], the fold binding over non-specific control BSA is 3 fold.
Turning to “synthetic peptide Seq ID 10 (Seq ID 9 with Gly-Gly-Gly-Ser at the C-terminal end), C-terminus amidated”, in assay [2], the IC50 of inhibition of chaperon activity of Hsp16.3 (ADH heat aggregation assay, A360) was determined as 47 µM; the aggregation of ADH restored in the presence of Hsp16.3 and 100 µM peptide (A360 at saturation) turned out to be 70%.
